Data from publication PMC2843741.

Biological target: GST-CypA (UniProt P62937)
Experiment: pull-down; 35S-labelled in vitro translated proteins incubated overnight in binding buffer with about 2.0 µg purified GST fusion or GST alone; glutathione Sepharose beads; 5 washes with PBS, 0.25% NP-40; SDS-10% PAGE, fluorography

Chain of UniProt P62937 (P62937 whole entry, the tested form may be a part): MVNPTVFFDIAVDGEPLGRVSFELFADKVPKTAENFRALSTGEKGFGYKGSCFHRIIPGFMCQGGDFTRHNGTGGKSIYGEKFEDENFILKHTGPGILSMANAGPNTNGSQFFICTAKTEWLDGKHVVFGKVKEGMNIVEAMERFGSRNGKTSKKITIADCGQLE

Substance: HA-wt NS5A with in-frame deletion of amino acids 271-360 (domain or fragment)
- percent of input pulled down: 8 to 9 % of input

Substance: HA-wt NS5A with in-frame deletion of amino acids 361-451 (domain or fragment)
- percent of input pulled down: 5 % of input
